The values that follow come from US8329637B2, “Method for the treatment of automimmune diseases comprising administering rapamycin and IL-10” (priority 2002, dated 2012).

Experiment [1] relates to Tr1 and CD4+CD25+ T cells. The experiment in a line: Tr cell content (cytokine profile by CBA, CD4+CD25+ by FACS) in spleen, PLN and IIC of treated NOD mice. The class given is cell-based, mouse. As to conditions: islet infiltrating cells (FIG. 11). As for the experimental part:
Cytokine production by CD4^+ T cells (left panels) and percentages of CD4^+CD25^+ T cells (right panels) were evaluated by CBA and FACS analysis respectively, in the spleen (A), pancreatic lymph nodes (PLN) (B), and islet infiltrating cells (IIC) (C) of untreated-diabetic NOD mice (gray bars), rapamycin-treated mice (white bars), or rapamycin+IL-10-treated mice (black bars). […] The percentages of CD4^+CD25^+ T cells were higher in the spleen, PLN, and IIC of both mice treated with rapamycin alone or rapamycin+IL-10 (black bars). Therefore, in rapamycin+IL-10 treated mice, Tr1 cells are present in the spleen and CD4^+CD25^+ Tr cells are present in the spleen, lymph nodes, and pancreas.
The mechanisms underlying long-term tolerance were analysed in tolerant mice of 50 weeks of age or older. […] However, the proportion of splenic CD4^+ T cells producing IL-4 was the same in both untreated and treated mice. […]
Flow cytometry. Cells were stained with the indicated Abs (all from BD), and were analyzed with a FACScan flow cytometer equipped with CellQuest software (BD).
Cytokine measurement. Cytokines present in the collected supernatants were quantified by sandwich ELISA or flow cytometry based assay (CBA), using standard commercially available kits (BD). The percentage of cells producing specific cytokines was measured by intracellular staining. […]

Experiment [2] deals with NOD mice. The experiment in a line: Diabetes inhibition study in NOD mice. Format: in vivo, mouse. As for the experimental part:
(B) Pre-diabetic mice were treated daily starting from 11 weeks of age with either rapamycin, rapamycin+IL-10 or IL-10 alone.
NOD mice were treated from 11 weeks to 31 weeks of age with IL-10 (IL-10, n=7 mice), or rapamycin (RAPA, n=13 mice), or rapamycin+IL-10 (RAPA/IL-10 n=16 mice), or vehicle (CNTR, n=22 mice). Diabetes incidence, monitored by glycemia levels, was stable at least up to 60 weeks of age. Administration of rapamycin alone reduced diabetes incidence from 95% to 46%.
In our proposed protocol, down-regulation of inflammation should be achieved by IL-10, and blockade of T effector cell expansion should be achieved by rapamycin. Neither IL-10 nor rapamycin prevent T cell priming and therefore they should allow induction of antigen-specific T regulatory cells, and as described below, IL-10 should promote the induction and expansion of Tr1 cells. We investigated the effect of rapamycin alone or in combination with IL-10 in treating autoimmunity in the NOD mouse a model for type I diabetes. […] Inhibition of type I diabetes was evaluated by treating NOD mice daily starting at 11 weeks of age (i.e. pre-diabetic mice with periinsultis) with rapamycin, rapamycin+IL-10, or IL-10 alone. […]
Mice. […] Glucose level in the tail venous blood was quantified using Glucometer Elite system (Bayer, Wuppertal, Germany). […]
Diabetes inhibition study. […] Diabetes incidence was monitored by blood glucose levels.

Experiment [3] relates to allogeneic C57BL/6 β-islets transplanted in diabetic Balb/c mice. The experiment in a line: Allogeneic β-islet transplantation (C57BL/6 into Balb/c), graft survival monitored by glycemia. The class given is in vivo, mouse.
Description: Balb/c mice that had been rendered diabetic by streptozotocin injection were transplanted under the kidney capsule with purified allogeneic C57BL/6 β-islets. Mice were not treated (control, n=13 mice), or treated with rapamycin+antiTac+IL-10 (IL-10 protocol, n=16 mice) or rapamycin+antiTac+FK506 (Edmonton protocol, n=4 mice) for 30 days. Graft survival was monitored by glycemia levels. A graft was considered rejected when glycemia was higher than 250 mg/dl.
Balb/c mice that had been rendered diabetic by streptozotocin injection were transplanted under the kidney capsule with purified allogeneic C57BL/6 β-islets. Mice were not treated (control, n=8 mice), or treated with rapamycin in combination with IL-10 (rapa+IL10, n=8 mice) or IL10 only (n=4 mice). Graft survival was monitored by glycemia levels.
Allogeneic β-islet transplantation. A model of fully mismatched murine islet allotransplantation (C57BL/6 into Balb/C) was used.
Balb/c mice that had been rendered diabetic by streptozotocin injection were transplanted under the kidney capsule with purified allogeneic C57BL/6 β-islets.
Treatment of transplanted mice. […] Diabetes incidence was monitored by blood glucose levels.

Take `CO[C@H]1C[C@@H]2CC[C@@H](C)[C@@](O)(O2)C(=O)C(=O)N2CCCC[C@H]2C(=O)O[C@H]([C@H](C)C[C@@H]2CC[C@@H](O)[C@H](OC)C2)CC(=O)[C@H](C)/C=C(\C)[C@@H](O)[C@@H](OC)C(=O)[C@H](C)C[C@H](C)/C=C/C=C/C=C/1C` [rapamycin]: in experiment [1], the “CD4+CD25+ T cells as share of CD4+ T cells isolated from IIC” value is about 100%. The diabetes incidence in experiment [2] (NOD mice treated from 11 to 31 weeks of age, vehicle 95% (FIG. 10A)) is recorded as 46%.

B1: IL-10: Human IL-10 (BD Biosciences), cytokine, 0.05 mg/Kg IP twice a day (protein, UniProt P22301 19-178, looked up)
Interleukin-10: SPGQGTQSENSCTHFPGNLPNMLRDLRDAFSRVKTFFQMKDQLDNLLLKESLLEDFKGYLGCQALSEMIQFYLEEVMPQAENQDPDIKAHVNSLGENLKTLRLRLRRCHRFLPCENKSKAVEQVKNAFNKLQEKGIYKAMSEFDIFINYIEAYMTMKIRN
On to B1, for which the long-term graft survival in experiment [3] (Balb/c mice treated for 30 days, without antiTac (FIG. 2)) is 30%. Moreover, the “prevention of graft rejection” value in experiment [3] (Balb/c mice, FIG. 2) is listed as “not efficient in preventing graft rejection”. Besides, in experiment [2] (NOD mice treated from 11 to 31 weeks of age (FIG. 10A)), the “effect on the development of diabetes” value was “no significant effect”.
